Measured values from paper PMC6346101 (2019).

Target: Biotinylated D/NP_(TAIL) fused to a biotinylation motif (Influenza D virus, strain …, UniProt A0A0E3VZU8 505-552)
Experiment: SPR

B1: human importin-α7 without its IBB domain (amino-acids 58 to 536) (domain or fragment)
chain: not shown
koff: 0.09 s⁻¹
